The values that follow come from patent publication US20230158060A1 (INFLARX, published 2023).

The target in this assay is GFP-tagged SARS-CoV N protein, full length (SARS-CoV, UniProt P59595 1-422). Nature of the assay: co-immunoprecipitation on Flag-tagged MASP-2 region beads, anti-GFP immunoblot. For orientation: A western blot detects proteins with antibodies after separation by electrophoresis.
Chain of GFP-tagged SARS-CoV N protein, full length (P59595 whole entry): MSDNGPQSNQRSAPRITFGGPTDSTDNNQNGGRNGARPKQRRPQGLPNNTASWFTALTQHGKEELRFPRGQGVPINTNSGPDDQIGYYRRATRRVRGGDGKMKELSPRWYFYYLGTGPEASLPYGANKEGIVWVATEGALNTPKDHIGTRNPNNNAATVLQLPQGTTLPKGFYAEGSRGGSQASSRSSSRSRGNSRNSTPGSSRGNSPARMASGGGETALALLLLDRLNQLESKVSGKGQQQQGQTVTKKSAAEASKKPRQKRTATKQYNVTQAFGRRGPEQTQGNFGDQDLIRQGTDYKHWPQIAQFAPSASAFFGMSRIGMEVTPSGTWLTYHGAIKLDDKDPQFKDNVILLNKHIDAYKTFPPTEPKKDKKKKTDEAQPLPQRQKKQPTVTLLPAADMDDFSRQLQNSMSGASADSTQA

B1: Flag-tagged MASP-2 N-terminal CUB1-EGF-CUB2 region (other, UniProt O00187 16-296, looked up, not shown: small tags and cut ends)
chain: TPLGPKWPEPVFGRLASPGFPGEYANDQERRWTLTAPPGYRLRLYFTHFDLELSHLCEYDFVKLSSGAKVLATLCGQESTDTERAPGKDTFYSLGSSLDITFRSDYSNEKPFTGFEAFYAAEDIDECQVAPGEAPTCDHHCHNHLGGFYCSCRAGYVLHRNKRTCSALCSGQVFTQRSGELSSPEYPRPYPKLSSCTYSISLEEGFSVILDFVESFDVETHPETLCPYDFLKIQTDREEHGPFCGKTLPHRIETKSNTVTITFVTDESGDHTGWKIHYTST
notes: domain: CUB1-EGF-CUB2
In the case of B1, the binding result is “no binding”.
